These results are taken from patent US20210214447A1 (SHANGHAI INSTITUTE OF MATERIA MEDICA CHINESE ACADEMY OF …, published 2021).

Assay [1] has as its target T1, human AXL on the surface of tumor cells (human, UniProt P30530 26-894).
T1 construct: whole, on cells; endogenous protein of human tumor cell lines; the cell line is named under assay or readout; also called AXL on the cell surface
T1 sequence (looked up): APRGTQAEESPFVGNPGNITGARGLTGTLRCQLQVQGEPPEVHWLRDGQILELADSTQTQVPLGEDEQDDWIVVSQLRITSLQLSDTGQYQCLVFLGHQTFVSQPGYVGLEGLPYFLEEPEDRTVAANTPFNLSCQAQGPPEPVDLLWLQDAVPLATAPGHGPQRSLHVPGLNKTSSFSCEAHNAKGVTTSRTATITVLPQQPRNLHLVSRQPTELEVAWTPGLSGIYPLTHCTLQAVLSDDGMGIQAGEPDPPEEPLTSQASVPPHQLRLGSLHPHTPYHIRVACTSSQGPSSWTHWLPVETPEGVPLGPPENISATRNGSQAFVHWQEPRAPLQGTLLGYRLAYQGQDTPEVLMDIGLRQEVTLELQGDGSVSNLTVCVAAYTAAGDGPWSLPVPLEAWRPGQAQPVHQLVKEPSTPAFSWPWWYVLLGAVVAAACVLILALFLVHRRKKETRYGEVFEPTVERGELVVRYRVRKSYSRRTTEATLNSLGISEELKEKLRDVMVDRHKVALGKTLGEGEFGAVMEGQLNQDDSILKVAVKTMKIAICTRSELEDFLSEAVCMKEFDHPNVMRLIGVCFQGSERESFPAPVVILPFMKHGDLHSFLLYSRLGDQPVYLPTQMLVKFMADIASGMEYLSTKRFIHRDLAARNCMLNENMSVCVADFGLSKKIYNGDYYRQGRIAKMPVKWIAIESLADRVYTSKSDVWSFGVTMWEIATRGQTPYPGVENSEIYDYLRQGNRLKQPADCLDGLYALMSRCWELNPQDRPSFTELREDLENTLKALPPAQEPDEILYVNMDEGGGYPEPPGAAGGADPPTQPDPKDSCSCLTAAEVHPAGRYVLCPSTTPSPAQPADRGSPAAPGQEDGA
Kind of assay: FACS on MDA-MB-231 cells. On the procedure:
Then the obtained solutions were incubated at 4° C. for 1 h, the cells were washed twice with PBS to remove unbound primary antibody, and then the target cells were incubated with 200 μL PE-labeled secondary antibody (2 μg/mL) at 4° C. for 30 min. The cells were washed twice with PBS to remove unbound secondary antibody. Finally, the cells were resuspended in 200 μL PBS, and the binding affinity of the test antibody to AXL on the cell surface was determined by a flow cytometer (FACSCalibur)
24 humanized antibodies in Table-6 were diluted by gradient, and their affinities to AXL, on the surface of MDA-MB-231 cells were determined by flow cytometer. The experimental method was referred to Example 8.

For assay [2], the target named is T2, extracellular domain of human AXL protein (AXL-ECD) (human, UniProt P30530 31-449).
T2 construct: expressed in HEK293T cells; coated on the ELISA plate; also called AXL-ECD protein; human AXL extracellular domain protein
T2 sequence: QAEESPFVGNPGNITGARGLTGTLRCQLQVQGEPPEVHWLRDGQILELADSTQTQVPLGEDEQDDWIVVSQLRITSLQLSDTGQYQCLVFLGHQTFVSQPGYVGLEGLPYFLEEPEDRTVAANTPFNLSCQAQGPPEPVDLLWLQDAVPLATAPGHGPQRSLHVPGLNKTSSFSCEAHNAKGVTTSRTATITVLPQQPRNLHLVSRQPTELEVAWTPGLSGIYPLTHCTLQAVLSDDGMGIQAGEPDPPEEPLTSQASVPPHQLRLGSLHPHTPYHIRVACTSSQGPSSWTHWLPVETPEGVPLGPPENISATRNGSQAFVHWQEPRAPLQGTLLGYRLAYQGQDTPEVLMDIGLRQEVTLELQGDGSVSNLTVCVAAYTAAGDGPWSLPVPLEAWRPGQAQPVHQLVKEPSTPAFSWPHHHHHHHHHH
As to the kind of experiment: ELISA, plate-coated AXL-ECD. On the procedure:
The extracellular domain of AXL protein (AXL-ECD) was diluted to […] with the coating solution, and coated onto ELISA plate with 100 μL/well at 4° C. overnight. The excess antigen was washed off. The plate was blocked with 1% BSA at room temperature for 2 h, then each monoclonal antibody in a 3-fold dilution was added at 100 µL/well. The plate was incubated at room temperature for 1 h; the unbound antibody was washed off, and appropriate concentration of anti-mouse secondary antibody labeled with horseradish peroxidase was added at 100 µL/well. The plate was incubated at room temperature for 0.5 h. The unbound secondary antibody was washed off. TMB Substrate was added and reacted for about 15 minutes. 1N HCL was added at 50 µL/well to stop the color reaction. Then the absorbance was measured at 450 nm and the obtained data was analyzed.
24 humanized antibodies in Table-6 were diluted by gradient, and their affinity to AXL-ECD protein was determined by ELISA. The experimental method was referred to Example 4.
For orientation: An ELISA detects its analyte on a solid surface through an enzyme-linked reagent.

B1: Hu002-3 (antibody, V domains shown)
VH: QVQLVQSGAEVKKPGASVKVSCKASGYPFTDFYINWVKQAPGQGLEWIGWIYPGSGNTKYNEKFKGRVTLTVDTSISTAYMELSRLRSDDTAVYYCARSTGFFDYWGQGTLVTVSS
VL: EIVLTQSPATLSLSPGERATLSCSASSSIGYMYWYQQKPGQAPRLLIYLTSNLASGIPARFSGSGSGTDFTLTISSLEPEDFAVYYCQQWSSNPPTFGQGTKLEIK
notes: humanized from mAb002c; also called Hu002c-3
Take B1: in assay [1], the EC50 (as a rule, the concentration needed to bring the measured effect to its halfway point) worked out at 108 pM and the “Highest MFI value (FACSCalibur)” value stood at 277 MFI. In addition, in assay [2], the midpoint of the response, the EC50, lay at 48 pM and the “TOP (OD450)” value was found to be 3.6 OD450.

B2: Hu002-17 (antibody, V domains shown)
VH: QVQLVQSGAEVKKPGASVKVSCKASGYPFTDFYINWVRQAPGQGLEWMGWIYPGSGNTKYNEKFKGRVTLTVDTSISTAYMELSRLRSDDTAVYYCARSTGFFDYWGQGTLVTVSS
VL: EIVLTQSPDFQSVTPKEKVTITCSASSSIGYMYWYQQKPDQSPKLLIYLTSNLASGVPSRFSGSGSGTDYTLTINSLEAEDAATYYCQQWSSNPPTFGQGTKLEIK
notes: humanized from mAb002c; also called Hu002c-17
With B2, in assay [1], it took 107 pM to reach a half-maximal effect (EC50) and the “Highest MFI value (FACSCalibur)” value turned out to be 269 MFI. In assay [2], the EC50 turned out to be 45 pM and the “TOP (OD450)” value was determined as 3.71 OD450.

B3: Hu002-7 (antibody, V domains shown)
VH: QVQLVQSGAEVKKPGASVKVSCKASGYPFTDFYINWVRQAPGQGLEWMGWIYPGSGNTKYNEKFKGRVTMTRDTSISTAYMELSRLRSDDTAVYYCARSTGFFDYWGQGTLVTVSS
VL: EIVLTQSPATLSLSPGERATLSCSASSSIGYMYWYQQKPGQSPRSLIYLTSNLASGIPARFSGSGSGTDYTLTISSLEPEDFAVYYCQQWSSNPPTFGQGTKLEIK
notes: humanized from mAb002c; also called Hu002c-7
In the case of B3, in assay [1], the midpoint of the response, the EC50, lay at 129 pM and the “Highest MFI value (FACSCalibur)” value is 275 MFI. In assay [2], the midpoint of the response, the EC50, lay at 58 pM and the “TOP (OD450)” value turned out to be 3.59 OD450.

B4: Hu002-14 (antibody, V domains shown)
VH: QVQLVQSGAEVKKPGASVKVSCKASGYPFTDFYINWVRQAPGQGLEWMGWIYPGSGNTKYNEKFKGRVTLTVDTSISTAYMELSRLRSDDTAVYYCARSTGFFDYWGQGTLVTVSS
VL: EIVLTQSPDFQSVTPKEKVTITCSASSSIGYMYWYQQKPDQSPKLLIKLTSNLASGVPSRFSGSGSGTDFTLTINSLEAEDAATYYCQQWSSNPPTFGQGTKLEIK
notes: humanized from mAb002c; also called Hu002c-14
Consider B4, for which, in assay [1], the midpoint of the response, the EC50, lay at 94 pM and the “Highest MFI value (FACSCalibur)” value is 264 MFI. In addition, in assay [2], the EC50 is 52 pM and the “TOP (OD450)” value was found to be 3.72 OD450.

B5: Hu002-13 (antibody, V domains shown)
VH: QVQLVQSGAEVKKPGASVKVSCKASGYPFTDFYINWVRQAPGQGLEWMGWIYPGSGNTKYNEKFKGRVTMTRDTSISTAYMELSRLRSDDTAVYYCARSTGFFDYWGQGTLVTVSS
VL: EIVLTQSPDFQSVTPKEKVTITCSASSSIGYMYWYQQKPDQSPKLLIKLTSNLASGVPSRFSGSGSGTDFTLTINSLEAEDAATYYCQQWSSNPPTFGQGTKLEIK
notes: humanized from mAb002c; also called Hu002c-13
Take B5: in assay [1], the EC50 came to 73 pM and the “Highest MFI value (FACSCalibur)” value came out at 262 MFI. In assay [2], the EC50 came out at 47 pM and the “TOP (OD450)” value turned out to be 3.73 OD450.

B6: Hu002-11 (antibody, V domains shown)
VH: QVQLVQSGAEVKKPGASVKVSCKASGYPFTDFYINWVRQAPGQGLEWMGWIYPGSGNTKYNEKFKGRVTLTVDTSISTAYMELSRLRSDDTAVYYCARSTGFFDYWGQGTLVTVSS
VL: QIVLTQSPATLSLSPGERATLSCSASSSIGYMYWYQQKPGQSPRSLIYLTSNLASGIPARFSGSGSGTDYTLTISSLEPEDFAVYYCQQWSSNPPTFGQGTKLEIK
notes: humanized from mAb002c; also called Hu002c-11
For B6, in assay [1], a half-maximal effect (EC50) was put at 123 pM and the “Highest MFI value (FACSCalibur)” value turned out to be 271 MFI. For the same molecule, in assay [2], the EC50 is 43 pM and the “TOP (OD450)” value is 3.74 OD450.

B7: Hu002-6 (antibody, V domains shown)
VH: QVQLVQSGAEVKKPGASVKVSCKASGYPFTDFYINWVKQAPGQGLEWIGWIYPGSGNTKYNEKFKGRVTLTVDTSISTAYMELSRLRSDDTAVYYCARSTGFFDYWGQGTLVTVSS
VL: EIVLTQSPATLSLSPGERATLSCSASSSIGYMYWYQQKPGQAPRLLIYLTSNLASGIPARFSGSGSGTDYTLTISSLEPEDFAVYYCQQWSSNPPTFGQGTKLEIK
notes: humanized from mAb002c; also called Hu002c-6
As to B7, in assay [1], a half-maximal effect (EC50) was put at 101 pM and the “Highest MFI value (FACSCalibur)” value amounted to 271 MFI. Besides, in assay [2], the EC50 amounted to 52 pM and the “TOP (OD450)” value amounted to 3.63 OD450.

B8: Hu002-8 (antibody, V domains shown)
VH: QVQLVQSGAEVKKPGASVKVSCKASGYPFTDFYINWVRQAPGQGLEWMGWIYPGSGNTKYNEKFKGRVTLTVDTSISTAYMELSRLRSDDTAVYYCARSTGFFDYWGQGTLVTVSS
VL: EIVLTQSPATLSLSPGERATLSCSASSSIGYMYWYQQKPGQSPRSLIYLTSNLASGIPARFSGSGSGTDYTLTISSLEPEDFAVYYCQQWSSNPPTFGQGTKLEIK
notes: humanized from mAb002c; also called Hu002c-8
As for B8, in assay [1], the EC50 was found to be 138 pM and the “Highest MFI value (FACSCalibur)” value is 270 MFI. Also, in assay [2], the midpoint of the response, the EC50, lay at 49 pM and the “TOP (OD450)” value was 3.59 OD450.

B9: Hu002-9 (antibody, V domains shown)
VH: QVQLVQSGAEVKKPGASVKVSCKASGYPFTDFYINWVKQAPGQGLEWIGWIYPGSGNTKYNEKFKGRVTLTVDTSISTAYMELSRLRSDDTAVYYCARSTGFFDYWGQGTLVTVSS
VL: EIVLTQSPATLSLSPGERATLSCSASSSIGYMYWYQQKPGQSPRSLIYLTSNLASGIPARFSGSGSGTDYTLTISSLEPEDFAVYYCQQWSSNPPTFGQGTKLEIK
notes: humanized from mAb002c; also called Hu002c-9
On to B9, for which, in assay [1], a half-maximal response (EC50) required 121 pM and the “Highest MFI value (FACSCalibur)” value came to 268 MFI. Also, in assay [2], the EC50 was found to be 67 pM and the “TOP (OD450)” value was 3.62 OD450.

B10: Hu002-10 (antibody, V domains shown)
VH: QVQLVQSGAEVKKPGASVKVSCKASGYPFTDFYINWVRQAPGQGLEWMGWIYPGSGNTKYNEKFKGRVTMTRDTSISTAYMELSRLRSDDTAVYYCARSTGFFDYWGQGTLVTVSS
VL: QIVLTQSPATLSLSPGERATLSCSASSSIGYMYWYQQKPGQSPRSLIYLTSNLASGIPARFSGSGSGTDYTLTISSLEPEDFAVYYCQQWSSNPPTFGQGTKLEIK
notes: humanized from mAb002c; also called Hu002c-10
Regarding B10, in assay [1], the EC50 worked out at 118 pM and the “Highest MFI value (FACSCalibur)” value stood at 273 MFI. Also, in assay [2], the EC50 was found to be 68 pM and the “TOP (OD450)” value is 3.58 OD450.

B11: Hu002-12 (antibody, V domains shown)
VH: QVQLVQSGAEVKKPGASVKVSCKASGYPFTDFYINWVKQAPGQGLEWIGWIYPGSGNTKYNEKFKGRVTLTVDTSISTAYMELSRLRSDDTAVYYCARSTGFFDYWGQGTLVTVSS
VL: QIVLTQSPATLSLSPGERATLSCSASSSIGYMYWYQQKPGQSPRSLIYLTSNLASGIPARFSGSGSGTDYTLTISSLEPEDFAVYYCQQWSSNPPTFGQGTKLEIK
notes: humanized from mAb002c; also called Hu002c-12
Take B11: in assay [1], the EC50 amounted to 116 pM and the “Highest MFI value (FACSCalibur)” value was determined as 261 MFI. In addition, in assay [2], the EC50 was 45 pM and the “TOP (OD450)” value was 3.73 OD450.
